From patent US20220089678A1 (CARTESIAN THERAPEUTICS, published 2022)
Changes are numbered by the printed parent chain.

Tests used:
human BCMA on cells [1] = target: T1, human BCMA on cells (human, UniProt Q02223 1-184); experiment: cell-based or functional assay
T1 sequence: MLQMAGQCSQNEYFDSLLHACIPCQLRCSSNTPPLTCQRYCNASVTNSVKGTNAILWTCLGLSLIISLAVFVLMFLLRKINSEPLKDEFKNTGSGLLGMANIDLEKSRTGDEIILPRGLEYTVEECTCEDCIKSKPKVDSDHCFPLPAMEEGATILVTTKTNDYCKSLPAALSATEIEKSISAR

[2] = target: T2, phycoerythrin (PE)-conjugated BCMA (Recombinant Human TNFRSF17 protein, Fc/His-tagged, R-PE labeled); Creative … (human, UniProt Q02223 1-54, R-PE labeled); experiment: flow cytometry; CAR T cells stained with BCMA-PE, 3 days after electroporation
T2 construct: Bought reagent; also called BCMA-PE; not shown: Fc/His tag of the bought reagent
T2 sequence: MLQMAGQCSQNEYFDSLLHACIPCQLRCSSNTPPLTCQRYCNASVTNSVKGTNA
Description: (§1) CAR T cells obtained from the above-described process were tested for viability, CAR protein expression, BCMA binding, and cytotoxicity, i.e., the ability to kill BCMA+ myeloma (tumor) cells. Viability, CAR expression, and BCMA binding were determined by flow cytometry on a GUAVA® […]® 12HT Flow cytometer (EMD Millipore). To test viability, a sample of the CAR T cells was mixed with propidium iodide and run on the flow cytometer with electronic gating on fluorescence in the near infrared channel. To test CAR protein expression and BCMA binding, a sample of the CAR T cells was incubated with 0.4 ug/mL of phycoerythrin (PE)-conjugated BCMA (Recombinant Human TNFRSF17 protein, Fc/His-tagged, R-PE labeled; Creative Biomart, Shirley, N.Y.). CAR expression was assessed on the flow cytometer with electronic gating on fluorescence in the yellow channel to detect presence or absence of emission from BCMA-PE on CAR-positive and CAR-negative cells. BCMA binding was determined by measuring the intensity of fluorescence in the yellow channel to determine the relative quantity of BCMA-PE bound to labelled CAR-positive cells. For the viability, expression, and BCMA binding assays, CD8+ T cells electroporated without mRNA (CAR-negative T Cells) were tested as a parallel control.
Numerous CAR-encoding mRNA constructs were prepared using the mRNA construct of SEQ ID: 29 as a starting point (which encodes a CAR of sequence SEQ ID: 19 and comprises the scFv of sequence SEQ ID: 48). These constructs encoded the same or substantially the same amino acid residues in the scFv complementary-determining regions (CDRs) but varied with respect to the amino acid residues in the scFv framework regions. In making these variations, the experimenter's intent was to humanize the scFv framework regions without reducing BCMA-binding and tumor-killing properties of CAR T cells that express the CAR. For each of the mRNA constructs, CAR T cells were prepared by transfection into human CD8+ cells, substantially as described in Example 1. The CAR T cells made from each mRNA construct were then tested 3 days after electroporation for BCMA binding and/or tumor killing, as substantially described in Example 1.

[3] = target: T2, phycoerythrin (PE)-conjugated BCMA …; experiment: as above; remark: listed apart in the source
Description: as §1
For each of the mRNA constructs, CAR T cells were prepared by transfection into human CD8+ cells, as described in Example 1. The CAR T cells made from each mRNA construct were then tested 3 days after electroporation for BCMA binding and tumor killing, as described in Example 1.

human BCMA on cells [4] = target: T1, human BCMA on cells; experiment: cell-based or functional assay; remark: listed apart in the source

B1: CAR comprising scFv-Y32 (SEQ ID NO: 57) (other)
chain: DIVLTQSPSSLSASVGDRATISCRASESVTILGSHLIHWYQQKPGQAPKLLIQLASNVQTGVPARFSGSGSGTDFTLTISSVEPEDVAVYYCLQSRTIPRTFGQGTKVEIKGSTSGSGKPGSGEGSTKGQIQLVQSGPELKKPGGSVKISCAASGYTFTDYSINWVRQAPGKGLEWVGWINTETREPAYAYDFRGRFTFSADTSKSTAYLQMNSLRAEDTAVYYCALDYSYAMDYWGQGTLVTVSS
notes: CAR on mRNA-electroporated human CD8+ T cells; Only the scFv is identified; not shown: rest of the CAR (hinge, transmembrane, cytoplasmic domains) not specified for this construct
Killing (% killed), Effector:target ratio of 1:2 (human BCMA on cells [1]): 85% | BCMA Binding [2]: 460 relative (SEQ ID: 48 = 100) | BCMA Binding (relative to SEQ ID: 54) [2]: 124 relative to SEQ ID: 54 = 100 | BCMA Binding (arbitrary units) [3]: 343 arbitrary units | Killing (% killed), Effector:target ratio of 1:10 (human BCMA on cells [4]): 85%

B2: CAR comprising scFv-10′ (SEQ ID NO: 66) (other)
chain: B1 chain with D160S, Y191Q, D192G, R194T, S230L, A232S, M233L, Y235F
notes: as for B1
Killing (% killed), Effector:target ratio of 1:2 (human BCMA on cells [1]): 81% | BCMA Binding (arbitrary units) [3]: 269 arbitrary units

B3: CAR comprising scFv-11′ (SEQ ID NO: 67) (other)
chain: DIVLTQSPSSLSASVGDRATISCRASESVTILGSHLIHWYQQKPGQAPKLLIQLASNVQTGVPARFSGSGSGTDFTLTISSVEPEDVAVYYCLQSRTIPRTFGQGTKVEIKGSTSGSGKPGSGEGSTKGQIQLVQSGPELKKPGGSVKISCAASGYTFTSYDINWVRQAPGKGLEWVGWINTNTGNPTYAQGFTGRFTFSADTSKSTAYLQMNSLRAEDTAVYYCALDYTYGMDYWGQGTLVTVSS
notes: as for B1
Killing (% killed), Effector:target ratio of 1:2 (human BCMA on cells [1]): 0% | BCMA Binding (arbitrary units) [3]: 310 arbitrary units

B4: CAR comprising scFv-12′ (SEQ ID NO: 68) (other)
chain: B1 chain with R96K, T97N, I98F, D160S, S162D, S230L, A232S, M233L, Y235F
notes: as for B1
Killing (% killed), Effector:target ratio of 1:2 (human BCMA on cells [1]): 7% | BCMA Binding (arbitrary units) [3]: 446 arbitrary units

B5: CAR comprising scFv-21′ (SEQ ID NO: 70) (other)
chain: B1 chain with Q53N, Q59N
notes: as for B1
Killing (% killed), Effector:target ratio of 1:2 (human BCMA on cells [1]): 83% | BCMA Binding (arbitrary units) [3]: 404 arbitrary units

B6: CAR comprising scFv-13′ (SEQ ID NO: 69) (other)
chain: DIVLTQSPSSLSASVGDRATISCRASESVSFLGINLIHWYQQKPGQAPKLLIYLASNLETGVPARFSGSGSGTDFTLTISSVEPEDVAVYYCLQSRTLPRTFGQGTKVEIKGSTSGSGKPGSGEGSTKGQIQLVQSGPELKKPGGSVKISCAASGYTFTSYSINWVRQAPGKGLEWVGWINTETREPAYAQGFTGRFTFSADTSKSTAYLQMNSLRAEDTAVYYCALDYLYSLDFWGQGTLVTVSS
notes: as for B1
Killing (% killed), Effector:target ratio of 1:2 (human BCMA on cells [1]): 77% | BCMA Binding (arbitrary units) [3]: 230 arbitrary units

B7: CAR comprising scFv-Y37 (SEQ ID NO: 60) (other)
chain: DIVLTQSPASLAVSPGQRATITCRASESVTILGSHLIHWYQQKPGQPPKLLIQLASNVQTGVPARFSGSGSGTDFTLTISSVEPEDTANYYCLQSRTIPRTFGQGTKVEIKGSTSGSGKPGSGEGSTKGQIQLVQSGPELKKPGGSVKISCKASGYTFTDYSINWVRQAPGKGLEWVGWINTETREPAYAYDFTGRFTFSADTSKSMAYLQINSLRAEDTAVYYCALDYSYAMDYWGQGTLVTVSS
notes: as for B1
Killing (% killed), Effector:target ratio of 1:2 (human BCMA on cells [1]): 83% | BCMA Binding [2]: 382 relative (SEQ ID: 48 = 100) | BCMA Binding (arbitrary units) [3]: 381 arbitrary units | Killing (% killed), Effector:target ratio of 1:10 (human BCMA on cells [4]): 83%
